Among the data in the supplement of paper PMC10567573 are protein stability index values, retold here.

The labels stand for the following.
B1: PDZK1 (parent)
chain: QKEQGLSDNILSPVMNGGVQTWTQ
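Also: lentivirally expressed fusions sorted by FACS into six bins by GFP to DsRed ratio, PSI derived from sequencing read proportions per bin multiplied by bin number.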

In this series the parent is B1. Put plainly: protein stability index of a GFP-peptide fusion (GPS, HEK-293T) (PSI 1-6); higher = more stable. Particulars: c terminus: a fixed tail appended.
As for QKEQGLSDKILSPVMNGGVQTWTQ [N9K], the protein stability index was 1.8.
Consider QKEQGLSDHILSPVMNGGVQTWTQ [N9H], for which the protein stability index came out at 2.34.
Under QKEQGLSDYILSPVMNGGVQTWTQ [N9Y] stands 1.78; under QKEQGLSDGILSPVMNGGVQTWTQ [N9G], 2.56; under QKEQGLSDQILSPVMNGGVQTWTQ [N9Q], 2.5.
As for QKEQGLSDLILSPVMNGGVQTWTQ [N9L], the figure is 2.21; as for QKEQGLSDVILSPVMNGGVQTWTQ [N9V], 2.38.
As for QKEQGLSDSILSPVMNGGVQTWTQ [N9S], the figure is 2.75; as for QKEQGLSDEILSPVMNGGVQTWTQ [N9E], 3.25.
As to QKEQGLSDRILSPVMNGGVQTWTQ [N9R], the protein stability index turned out to be 2.05.
As for QKEQGLSDDILSPVMNGGVQTWTQ [N9D], the figure is 3.45; as for QKEQGLSDFILSPVMNGGVQTWTQ [N9F], 1.86; as for QKEQGLSDCILSPVMNGGVQTWTQ [N9C], 2.67.
As for QKEQGLSDMILSPVMNGGVQTWTQ [N9M], the figure is 2.74; as for QKEQGLSDAILSPVMNGGVQTWTQ [N9A], 2.67; as for QKEQGLSDTILSPVMNGGVQTWTQ [N9T], 2.56.
As to QKEQGLSDIILSPVMNGGVQTWTQ [N9I], the protein stability index was determined as 2.88.
As for QKEQGLSDNILYPVMNGGVQTWTQ [S12Y], the figure is 2.83.
For the variant QKEQGLSDNILTPVMNGGVQTWTQ [S12T], the protein stability index came to 2.36.
In the case of QKEQGLSDNILHPVMNGGVQTWTQ [S12H], the protein stability index came out at 1.74.
As for QKEQGLSDNILDPVMNGGVQTWTQ [S12D], the figure is 3.84; as for QKEQGLSDNILMPVMNGGVQTWTQ [S12M], 2.22.
Under QKEQGLSDNILAPVMNGGVQTWTQ [S12A] stands 2.58; under QKEQGLSDNILGPVMNGGVQTWTQ [S12G], 3.21; under QKEQGLSDNILKPVMNGGVQTWTQ [S12K], 2.18.
Under QKEQGLSDNILIPVMNGGVQTWTQ [S12I] stands 3.58; under QKEQGLSDNILNPVMNGGVQTWTQ [S12N], 3.27; under QKEQGLSDNILPPVMNGGVQTWTQ [S12P], 3.76.
Consider QKEQGLSDNILFPVMNGGVQTWTQ [S12F], for which the protein stability index stood at 2.76.
Under QKEQGLSDNILWPVMNGGVQTWTQ [S12W] stands 1.95.
Under QKEQGLSDNILSPSMNGGVQTWTQ [V14S] stands 2.91.
Under QKEQGLSDNILSPAMNGGVQTWTQ [V14A] stands 3.29; under QKEQGLSDNILSPRMNGGVQTWTQ [V14R], 2.64; under QKEQGLSDNILSPTMNGGVQTWTQ [V14T], 2.93.
Turning to QKEQGLSDNILSPKMNGGVQTWTQ [V14K], the protein stability index is 2.54.
Under QKEQGLSDNILSPIMNGGVQTWTQ [V14I] stands 2.4; under QKEQGLSDNILSPGMNGGVQTWTQ [V14G], 1.5; under QKEQGLSDNILSPCMNGGVQTWTQ [V14C], 3.74.
Under QKEQGLSDNILSPQMNGGVQTWTQ [V14Q] stands 2.9; under QKEQGLSDNILSPNMNGGVQTWTQ [V14N], 2.77; under QKEQGLSDNILSPMMNGGVQTWTQ [V14M], 2.65.
As for QKEQGLSDNILSPPMNGGVQTWTQ [V14P], the figure is 2.47.
On to QKEQGLSDNILSPEMNGGVQTWTQ [V14E], for which the protein stability index was found to be 2.78.
As to QKEQGLSDNILSPHMNGGVQTWTQ [V14H], the protein stability index turned out to be 2.46.
As for QKEQGLSDNIQSPVMNGGVQTWTQ [L11Q], the figure is 2.
As to QKEQGLSDNIMSPVMNGGVQTWTQ [L11M], the protein stability index is 3.25.
Under QKEQGLSDNIHSPVMNGGVQTWTQ [L11H] stands 2.75.
Regarding QKEQGLSDNIYSPVMNGGVQTWTQ [L11Y], the protein stability index came to 2.5.
As for QKEQGLSDNIWSPVMNGGVQTWTQ [L11W], the figure is 2.33.
As for QKEQGLSDNIVSPVMNGGVQTWTQ [L11V], the figure is 3.62; as for QKEQGLSDNIFSPVMNGGVQTWTQ [L11F], 2.13.
Under QKEQGLSDNIRSPVMNGGVQTWTQ [L11R] stands 2.73.
For the variant QKEQGLSDNICSPVMNGGVQTWTQ [L11C], the protein stability index was determined as 2.63.
QKEQGLSDNIPSPVMNGGVQTWTQ [L11P]: the protein stability index is 2.48.
In the case of QKEQGLSDNIKSPVMNGGVQTWTQ [L11K], the protein stability index stood at 1.64.
Take QKEQGLSDNIASPVMNGGVQTWTQ [L11A]: the protein stability index is 3.47.
QKEQGLSDNIISPVMNGGVQTWTQ [L11I]: the protein stability index came to 1.89.
As for QKEQGLSDNIESPVMNGGVQTWTQ [L11E], the protein stability index is 3.97.
Under QKEQGLSDNILSSVMNGGVQTWTQ [P13S] stands 2.37; under QKEQGLSDNILSNVMNGGVQTWTQ [P13N], 3.05.
Under QKEQGLSDNILSHVMNGGVQTWTQ [P13H] stands 1.96; under QKEQGLSDNILSKVMNGGVQTWTQ [P13K], 2.47; under QKEQGLSDNILSVVMNGGVQTWTQ [P13V], 2.41.
Under QKEQGLSDNILSTVMNGGVQTWTQ [P13T] stands 2.34.
On to QKEQGLSDNILSRVMNGGVQTWTQ [P13R], for which the protein stability index worked out at 2.09.
Under QKEQGLSDNILSQVMNGGVQTWTQ [P13Q] stands 2.5; under QKEQGLSDNILSIVMNGGVQTWTQ [P13I], 1.59.
QKEQGLSDNILSYVMNGGVQTWTQ [P13Y]: the protein stability index is 1.9.
As for QKEQGLSDNILSFVMNGGVQTWTQ [P13F], the figure is 1.56; as for QKEQGLSDNILSAVMNGGVQTWTQ [P13A], 2.06.
With QKEQGLSDNILSCVMNGGVQTWTQ [P13C], the protein stability index was 1.87.
For the variant QKEQGLSYNILSPVMNGGVQTWTQ [D8Y], the protein stability index was 2.15.
For QKEQGLSVNILSPVMNGGVQTWTQ [D8V], the protein stability index was found to be 2.29.
QKEQGLSRNILSPVMNGGVQTWTQ [D8R]: the protein stability index came to 2.59.
Under QKEQGLSNNILSPVMNGGVQTWTQ [D8N] stands 2.68; under QKEQGLSWNILSPVMNGGVQTWTQ [D8W], 2.4.
Under QKEQGLSLNILSPVMNGGVQTWTQ [D8L] stands 2.73; under QKEQGLSMNILSPVMNGGVQTWTQ [D8M], 1.92; under QKEQGLSTNILSPVMNGGVQTWTQ [D8T], 2.39.
On to QKEQGLSPNILSPVMNGGVQTWTQ [D8P], for which the protein stability index came to 2.34.
As for QKEQGLSSNILSPVMNGGVQTWTQ [D8S], the figure is 2.34; as for QKEQGLSDNNLSPVMNGGVQTWTQ [I10N], 3.43.
As for QKEQGLSDNALSPVMNGGVQTWTQ [I10A], the figure is 2.89; as for QKEQGLSDNKLSPVMNGGVQTWTQ [I10K], 3.02; as for QKEQGLSDNQLSPVMNGGVQTWTQ [I10Q], 3.34.
With QKEQGLSDNELSPVMNGGVQTWTQ [I10E], the protein stability index is 3.89.
Under QKEQGLSDNFLSPVMNGGVQTWTQ [I10F] stands 2.04; under QKEQGLSDNYLSPVMNGGVQTWTQ [I10Y], 2.6.
Under QKEQGLSDNVLSPVMNGGVQTWTQ [I10V] stands 2.56.
Under QKEQGLSDNGLSPVMNGGVQTWTQ [I10G] stands 2.83; under QKEQGLSDNMLSPVMNGGVQTWTQ [I10M], 2.67.
Turning to QKEQGLSDNCLSPVMNGGVQTWTQ [I10C], the protein stability index stood at 3.03.
Under QKEQGLSDNRLSPVMNGGVQTWTQ [I10R] stands 2.35.
As for QKEQGLSDNHLSPVMNGGVQTWTQ [I10H], the figure is 2.96.
